Reference: the RNAGym collection of RNA variant scans (doi:10.7554/elife.80360)

B1: Hairpin Ribozyme (parent)
chain: GUCCUCUUUCACGUGCGCGUGAAAGAGAGAAGUGAACCAGAGAAACACACGUUGUGGUAUAUUACCUGGUA

Variants of: B1
Test: self-cleavage, relative activity (ratio to wild type); higher = more cleavage; co-transcriptional

Variant | self-cleavage
G40C A45U | 0.267
G40C A45G | 0.0193
C38G A39C | 0.146
C38G A39G | 0.117
C37U G40U | 0.178
C37U G40A | 0.183
G40U A43C | 0.165
G40C U62A | 0.116
G40C U62C | 0.143
C38A C50U | 0.15
C38A C50A | 0.0919
C38G G54A | 0.105
A39U A59C | 0.172
A39U A59U | 0.184
A39U A59G | 0.101
C38G U63C | 0.178
C38U G69U | 0.283
C37U G51C | 0.689
C37U G51A | 0.967
G40C C65A | 0.145
G40C C65G | 0.156
C38U G57U | 0.175
G40A G57C | 0.0825
G40A G57U | 0.0976

Variant | self-cleavage
G40A A61C | 0.14
A39C U70C | 0.247
G40U U60G | 0.128
A39C A64U | 0.16
A39C A64G | 0.0974
C38A C48G | 0.122
C38A C48A | 0.14
G40A A45G | 0.147
G40C A61U | 0.224
G40U A41U | 0.221
C38A C66U | 0.0169
C38A C66A | 0.216
A39C G57A | 0.215
A39G U52A | 0.23
C38A A47C | 0.146
C38A A47U | 0.0951
C38A C65A | 0.198
G40U G69A | 0.143
A39G A64U | 0.123
A39G A64C | 0.174
C38G U67A | 0.224
G40U G51A | 0.283
G40U G51U | 0.179
G40U A44G | 0.161

Variant | self-cleavage
C38G A71G | 0.172
C38G A71U | 0.138
G40A G54A | 0.19
G40A G54C | 0.0891
A41C A43U | 0.13
A39C A71U | 0.136
A39C A71G | 0.248
C38U A47U | 0.151
G40U A71U | 0.131
C38U C65U | 0.12
A39C C65A | 0.233
A41C A61C | 0.456
C38U G54A | 0.269
G40A C46G | 0.136
G40A C46U | 0.147
C37U C48G | 0.0435
A39G U70A | 0.2
A39G U70C | 0.372
A39G U70G | 0.332
A39G C48U | 0.0998
C37U G56A | 0.156
A39G C46G | 0.113
A39G C46A | 0.0818
A39G C46U | 0.119

Variant | self-cleavage
A39U A64U | 0.16
A39U A64C | 0.177
C38U A49U | 0.137
C38U A49G | 0.343
C38U C46U | 0.0928
A39C U67C | 0.149
C38A A64U | 0.179
C38A A64C | 0.103
C38A A64G | 0.108
A39U U58C | 0.46
A39U U58G | 0.227
A39U U58A | 0.328
G40A G56A | 0.117
A39C C46U | 0.103
A39C C46G | 0.13
A39C C46A | 0.191
G40C A41G | 0.163
A41C A47C | 0.468
A39U G54A | 0.122
G40U C66A | 0.593
G40U C66G | 0.11
A39C G54U | 0.103
C38A A61G | 0.258
C38A A61C | 0.174

Variant | self-cleavage
C38U U52A | 0.509
C38U U52G | 0.261
A39C C50G | 0.0993
A39C C50A | 0.165
A39G G51A | 0.396
G40A U55C | 0.144
G40A U55G | 0.121
A39G G69A | 0.112
A39G G69C | 0.101
C37U C38U | 0.201
C37U C38G | 0.0604
C38A A71G | 0.249
A39G A45U | 0.111
G40U G42C | 0.0925
A41C C46A | 0.0559
A41C C46U | 0.0492
A39G U60G | 0.21
A39U U62C | 0.133
C38G G40C | 0.0961
A39C G40A | 0.112
A39C G40U | 0.0957
G40C U53A | 0.235
A39U C46G | 0.164
C38U U58G | 0.447

Variant | self-cleavage
A39C U55G | 0.205
C38A G40C | 0.103
C38A G40U | 0.23
A39U A43U | 0.223
A39U A43G | 0.103
C38A G69C | 0.168
A39C A59C | 0.114
A39C A59G | 0.126
A39C A59U | 0.172
G40A G69A | 0.122
A39U A71G | 0.221
G40C U67A | 0.0737
C38A C46U | 0.187
C38A U67A | 0.124
C38A U67G | 0.137
C38U U70A | 0.522
A39G | 0.299
A39U | 0.424
A39C | 0.539
C37U G42U | 0.27
G40C G57A | 0.111
C38U U67C | 0.121
G40A A49C | 0.0897
C38U U62G | 0.124

Variant | self-cleavage
A39C A43G | 0.085
A39U G42A | 0.18
A39U G42C | 0.158
A39G C50G | 0.111
G40C G42A | 0.0581
G40C G42U | 0.191
A39C A61G | 0.131
C38U G40A | 0.203
G40C U58G | 0.199
G40U C46A | 0.16
G40U C46U | 0.106
A39U U53G | 0.179
A39C U53G | 0.207
C38U C50U | 0.249
C38A A41G | 0.51
C38G U70C | 0.157
A39U C48U | 0.206
A39U C48G | 0.124
A39U C48A | 0.135
C38A U53C | 0.228
C38A U53A | 0.215
C37U U67G | 0.234
C37U U67C | 0.142
C38U G68U | 0.605

Variant | self-cleavage
C38U G68A | 0.931
G40C A49U | 0.169
G40C A49C | 0.0764
G40C A49G | 0.132
A39G U62A | 0.12
A39G U62C | 0.145
A39G A49C | 0.176
A39G A47C | 0.166
A39U U70A | 0.289
C38U C66G | 0.255
C38G A61G | 0.166
C38G A61U | 0.227
A39U A44G | 0.119
A39U A41C | 0.3
A39U A41U | 0.458
C38A G51C | 0.223
A39U U63A | 0.114
A39U U63G | 0.137
C38A U70C | 0.115
C38A U70G | 0.141
C38U A39U | 0.185
C38U A39G | 0.3
G40A U67G | 0.147
A39U A47C | 0.168

Variant | self-cleavage
C38U A59G | 0.194
A39C A49G | 0.208
A41C A44G | 0.241
A41C A44U | 0.154
A39G U67C | 0.544
A39G U67G | 0.147
C38A A59U | 0.134
C38A A59G | 0.118
A39U G40C | 0.149
A39U G40U | 0.149
A39U G40A | 0.134
C38A A39G | 0.136
C38A A39C | 0.0755
G40U A61U | 0.132
G40U A61C | 0.0593
C38G G51C | 0.147
G40C U70G | 0.131
G40C U70A | 0.143
G40C U70C | 0.13
G40C A71G | 0.165
G40C A71C | 0.401
G40U A49U | 0.0847
G40U A49C | 0.118
C38A A49C | 0.11

Variant | self-cleavage
C38A A49G | 0.182
G40A G42C | 0.0893
G40U A64G | 0.103
G40A U58C | 0.558
G40U U55A | 0.104
C38A U55C | 0.116
G40A A71G | 0.402
A39U U55G | 0.108
A39U U55C | 0.183
C37U U53C | 0.808
G40U G68U | 0.195
A39G G57A | 0.129
A39G G57U | 0.0985
A39G G57C | 0.105
C38G G42U | 0.172
A39G A71G | 0.222
A39U C65U | 0.201
A39U C65A | 0.238
G40C A47G | 0.0685
C38A G42C | 0.0881
C38A G42U | 0.112
A39G A43G | 0.0922
G40U U70A | 0.123
C38G U60C | 0.233

Variant | self-cleavage
G40A A59G | 0.0897
G40U C50U | 0.11
G40A C50U | 0.195
G40C U60C | 0.135
C38U A61G | 0.26
C38U A61C | 0.197
A39C U52G | 0.267
G40C A44U | 0.151
G40C A44G | 0.101
A39G U53C | 0.273
A39G U53G | 0.207
G40C U55C | 0.163
G40C U55G | 0.138
C38G G57U | 0.116
A39C U60A | 0.359
A39C U60G | 0.33
A39C U60C | 0.784
G40U G54C | 0.155
G40U G54A | 0.157
G40U G57A | 0.128
A41C A59G | 0.152
C38G A49U | 0.137
C38G U62A | 0.127
C38U A64C | 0.233

Variant | self-cleavage
C38U A64G | 0.306
C37U U63G | 0.172
A39C A44C | 0.17
G40C A59U | 0.198
A39C U58G | 0.315
A39C U58A | 0.231
A39U G51A | 0.585
A39U G51C | 0.35
C38U A45U | 0.113
A39C U63G | 0.122
A39C A45G | 0.105
A41C A71C | 1.53
A39G A44G | 0.129
C38A G68A | 0.148
C38U C48U | 0.174
C38U C48G | 0.123
G40U U67A | 0.159
G40U A45C | 0.103
G40U A45G | 0.132
G40U A45U | 0.219
C38A U60G | 0.218
G40C C46G | 0.21
A39C G51A | 0.751
G40A U53A | 0.424

Variant | self-cleavage
G40U U58C | 0.278
G40C U52A | 0.209
A41C A64C | 0.285
C38A U62C | 0.0746
A39U U60G | 0.256
C38G G68C | 0.591
G40C G51A | 0.115
G40A U60C | 0.413
G40U A59U | 0.14
C38U G51A | 0.786
C38U G51U | 0.774
C38A U58A | 0.211
A39C C48A | 0.171
A39C A41U | 0.406
C38U A43C | 0.0947
C38U U55A | 0.168
A39U G68A | 0.199
A39U G68C | 0.0955
A39C A47G | 0.172
G40A U63C | 0.15
G40A U63A | 0.161
C38U A44G | 0.0449
A39C G68A | 0.215
A39C G68U | 0.229

Variant | self-cleavage
G40A A47U | 0.154
G40A A47C | 0.194
A39G C65A | 0.442
C37U U52A | 0.672
G40C C50U | 0.198
C38G C65U | 0.0351
G40C G56U | 0.152
A39G U63G | 0.147
A39G U63C | 0.158
C37U G68U | 0.193
C37U G68C | 0.139
C38A A44G | 0.144
C38A A44U | 0.118
G40A G51A | 0.578
C38A A45C | 0.234
C37U A71U | 0.557
G40U A47U | 0.131
C38G A43G | 0.171
C38G A59C | 0.12
C37U C46G | 0.13
C37U C46A | 0.121
A39G G56C | 0.117
